Reference: the supplement of paper PMC10266784

B1: library; numbered along this chain (parent)
chain: MAAAAAAAAEQQSSNGPVKKSMREKAVERRSVNKEHNSNFKAGYIPIDEDRLHKTGLRGRKGNLAICVIILLFILAVINLIITLVIWAVIRIGPNGCDSMEFHESGLLRFKQVSDMGVIHPLYKSTVGGRRNENLVITGNNQPIVFQQGTTKLSVENNKTSITSDIGMQFFDPRTQNILFSTDYETHEFHLPSGVKSLNVQKASTERITSNATSDLNIKVDGRAIVRGNEGVFIMGKTIEFHMGGNMELKAENSIILNGSVMVSTTRLPSSSSGDQLGSGDWVRYKLCMCADGTLFKVQVTSQNMGCQISDNPCGNTH

Variants of: B1
Assay: SGCB cell-surface expression functional score (HA stain, bin4 vs bin1, normalised to synonymous) (log10 ratio); higher = more cell-surface SGCB (functional)
Summary of the method: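 HEK293 cells stably expressing alpha-, gamma- and delta-sarcoglycan received codon-saturation libraries of HA-tagged, YFP-fused human beta-sarcoglycan by lentiviral transduction at MOI <0.1, performed in duplicate. Cells positive for YFP were sorted after 72 hours and cultured for 5–7 days, then stained on ice with Alexa Fluor 647 anti-HA and fixed. Fixed cells were sorted into four 5% intensity bins and amplicon-sequenced, and the log ratio of highest-bin to lowest-bin variant frequency, as a median over codons and transductions, gives the functional score. Per section, synonymous variants were scaled to mean 0, SD 0.5.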

Row | Variant | SGCB cell-surface expression functional score (log10)
1 | MAAAAAAAAEQQSSNGPVKKSMREKAVERRSVNKEHNSNFKAGYIPIDEDRLHKTGLRGRKGNLAICVIILLFILAVINLIITLVICAVIRIGPNGCDSMEFHESGLLRFKQVSDMGVIHPLYKSTVGGRRNENLVITGNNQPIVFQQGTTKLSVENNKTSITSDIGMQFFDPRTQNILFSTDYETHEFHLPSGVKSLNVQKASTERITSNATSDLNIKVDGRAIVRGNEGVFIMGKTIEFHMGGNMELKAENSIILNGSVMVSTTRLPSSSSGDQLGSGDWVRYKLCMCADGTLFKVQVTSQNMGCQISDNPCGNTH [W87C] | -0.23
2 | MAAAAAAAAEQQSSNGPVKKSMREKAVERRSVNKEHNSNFKAGYIPIDEDRLHKTGLRGRKGNLAICVIILLFILAVINLIITLVIAAVIRIGPNGCDSMEFHESGLLRFKQVSDMGVIHPLYKSTVGGRRNENLVITGNNQPIVFQQGTTKLSVENNKTSITSDIGMQFFDPRTQNILFSTDYETHEFHLPSGVKSLNVQKASTERITSNATSDLNIKVDGRAIVRGNEGVFIMGKTIEFHMGGNMELKAENSIILNGSVMVSTTRLPSSSSGDQLGSGDWVRYKLCMCADGTLFKVQVTSQNMGCQISDNPCGNTH [W87A] | -0.18
3 | MAAAAAAAAEQQSSNGPVKKSMREKAVERRSVNKEHNSNFKAGYIPIDEDRLHKTGLRGRKGNLAICVIILLFILAVINLIITLVIEAVIRIGPNGCDSMEFHESGLLRFKQVSDMGVIHPLYKSTVGGRRNENLVITGNNQPIVFQQGTTKLSVENNKTSITSDIGMQFFDPRTQNILFSTDYETHEFHLPSGVKSLNVQKASTERITSNATSDLNIKVDGRAIVRGNEGVFIMGKTIEFHMGGNMELKAENSIILNGSVMVSTTRLPSSSSGDQLGSGDWVRYKLCMCADGTLFKVQVTSQNMGCQISDNPCGNTH [W87E] | -0.7
4 | MAAAAAAAAEQQSSNGPVKKSMREKAVERRSVNKEHNSNFKAGYIPIDEDRLHKTGLRGRKGNLAICVIILLFILAVINLIITLVIFAVIRIGPNGCDSMEFHESGLLRFKQVSDMGVIHPLYKSTVGGRRNENLVITGNNQPIVFQQGTTKLSVENNKTSITSDIGMQFFDPRTQNILFSTDYETHEFHLPSGVKSLNVQKASTERITSNATSDLNIKVDGRAIVRGNEGVFIMGKTIEFHMGGNMELKAENSIILNGSVMVSTTRLPSSSSGDQLGSGDWVRYKLCMCADGTLFKVQVTSQNMGCQISDNPCGNTH [W87F] | 0.33
5 | MAAAAAAAAEQQSSNGPVKKSMREKAVERRSVNKEHNSNFKAGYIPIDEDRLHKTGLRGRKGNLAICVIILLFILAVINLIITLVIDAVIRIGPNGCDSMEFHESGLLRFKQVSDMGVIHPLYKSTVGGRRNENLVITGNNQPIVFQQGTTKLSVENNKTSITSDIGMQFFDPRTQNILFSTDYETHEFHLPSGVKSLNVQKASTERITSNATSDLNIKVDGRAIVRGNEGVFIMGKTIEFHMGGNMELKAENSIILNGSVMVSTTRLPSSSSGDQLGSGDWVRYKLCMCADGTLFKVQVTSQNMGCQISDNPCGNTH [W87D] | 0.08
6 | MAAAAAAAAEQQSSNGPVKKSMREKAVERRSVNKEHNSNFKAGYIPIDEDRLHKTGLRGRKGNLAICVIILLFILAVINLIITLVIGAVIRIGPNGCDSMEFHESGLLRFKQVSDMGVIHPLYKSTVGGRRNENLVITGNNQPIVFQQGTTKLSVENNKTSITSDIGMQFFDPRTQNILFSTDYETHEFHLPSGVKSLNVQKASTERITSNATSDLNIKVDGRAIVRGNEGVFIMGKTIEFHMGGNMELKAENSIILNGSVMVSTTRLPSSSSGDQLGSGDWVRYKLCMCADGTLFKVQVTSQNMGCQISDNPCGNTH [W87G] | -0.12
7 | MAAAAAAAAEQQSSNGPVKKSMREKAVERRSVNKEHNSNFKAGYIPIDEDRLHKTGLRGRKGNLAICVIILLFILAVINLIITLVLWAVIRIGPNGCDSMEFHESGLLRFKQVSDMGVIHPLYKSTVGGRRNENLVITGNNQPIVFQQGTTKLSVENNKTSITSDIGMQFFDPRTQNILFSTDYETHEFHLPSGVKSLNVQKASTERITSNATSDLNIKVDGRAIVRGNEGVFIMGKTIEFHMGGNMELKAENSIILNGSVMVSTTRLPSSSSGDQLGSGDWVRYKLCMCADGTLFKVQVTSQNMGCQISDNPCGNTH [I86L] | -0.35
8 | MAAAAAAAAEQQSSNGPVKKSMREKAVERRSVNKEHNSNFKAGYIPIDEDRLHKTGLRGRKGNLAICVIILLFILAVINLIITLVYWAVIRIGPNGCDSMEFHESGLLRFKQVSDMGVIHPLYKSTVGGRRNENLVITGNNQPIVFQQGTTKLSVENNKTSITSDIGMQFFDPRTQNILFSTDYETHEFHLPSGVKSLNVQKASTERITSNATSDLNIKVDGRAIVRGNEGVFIMGKTIEFHMGGNMELKAENSIILNGSVMVSTTRLPSSSSGDQLGSGDWVRYKLCMCADGTLFKVQVTSQNMGCQISDNPCGNTH [I86Y] | -0.61
9 | MAAAAAAAAEQQSSNGPVKKSMREKAVERRSVNKEHNSNFKAGYIPIDEDRLHKTGLRGRKGNLAICVIILLFILAVINLIITLVNWAVIRIGPNGCDSMEFHESGLLRFKQVSDMGVIHPLYKSTVGGRRNENLVITGNNQPIVFQQGTTKLSVENNKTSITSDIGMQFFDPRTQNILFSTDYETHEFHLPSGVKSLNVQKASTERITSNATSDLNIKVDGRAIVRGNEGVFIMGKTIEFHMGGNMELKAENSIILNGSVMVSTTRLPSSSSGDQLGSGDWVRYKLCMCADGTLFKVQVTSQNMGCQISDNPCGNTH [I86N] | -0.75
